The values below come from US11278600B2, “Human alpha-galactosidase variants” (Codexis, Inc., priority 2014, dated 2022).

Assay type in all cases: biochemical
A short description of series [1]: HTP-analysis of yeast culture supernatants, no challenge (MUGal hydrolysis). The conditions noted are these: activity of the variant/activity of Rd3BB (SEQ ID NO: 13). Summed up: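 GLA variants were expressed in INVSc1 yeast grown in SD-Ura broth with glucose at 30° C., and culture supernatants were collected after 66-84 h. Supernatant was mixed with McIlvaine buffer pH 4.8 and MUGal (2 mM stock) in 50 mM citrate, 200 mM KCl, pH 4.6, incubated at 37° C. for 30-180 minutes, then quenched with sodium carbonate.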

A short description of series [2]: HTP-analysis of supernatants pretreated with acid (MUGal hydrolysis). The conditions noted are these: activity of the variant/activity of Rd3BB (SEQ ID NO: 13); challenge at pH 3.7. Summed up: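 Fluorescence of MUGal hydrolysis (Ex. 355 nm, Em. 448 nm) is read after sodium carbonate quench. The enzyme source is INVSc1 yeast culture supernatant, first exposed to pH 3.3-4.3 McIlvaine buffer at 37° C. for 1-3 h, then reacted at pH 4.8 for 30-180 minutes.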

A short description of series [3]: HTP-analysis of supernatants pretreated with base (MUGal hydrolysis). The conditions noted are these: activity of the variant/activity of Rd3BB (SEQ ID NO: 13); challenge at pH 9.7. Summed up: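 GLA variants were secreted by transformed INVSc1 yeast grown 66-84 h at 30° C. Supernatants were exposed to neutral-to-basic buffers (pH 7.0-9.7) at 37° C for 1-18 h, then assayed with MUGal in acidic citrate/McIlvaine buffer, with fluorescence read after quenching.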

B1: 566 (protein)
chain: LDNGLARTPTMGWLHWERFMCNLDCQEEPDSCISEKLFMEMAERMVSEGWKDAGYEYLCIDDCWMAPQRDSEGRLQADPQRFPHGIRQLANHVHSKGLKLGIYADVGNKTCAGFPGSFGYYDIDAQTFADWGVDLLKFDGCYCDSLENLADGYKHMSLALNRTGRSIVYSCEWPLYMWPFQKPNYTEIRQYCNHWRNFADIDDSWASIKSILDWTSRNQERIVDVAGPGGWNDPDMLVIGNFGLSWDQQVTQMALWAIMAAPLFMSNDLRHISPQAKALLQDKDVIAINQDPLGKQGYQLRKGDNFEVWERPLSGDAWAVAIINRQEIGGPRSYTIPVASLGKGVACMPACFITQLLPVKRQLGFYNWTSRLKSHINPTGTVLLQLENTMQMSLKDLL
modifications: Synthetic Polypeptide sequence of Variant No. 566 of mature Human GLA
Regarding B1, the “Relative Activity of GLA Variants After No Challenge (NC)” value in series [1] was “+ (+ = 1.5 to 5 relative activity over Rd3BB (SEQ ID NO: 13))”. Further, in series [2], the “Relative Activity of GLA Variants After Challenge at pH 3.7” value (“Relative Activity … at pH 3.7” for short) was “+ (+ = 1.5 to 5 relative activity over Rd3BB (SEQ ID NO: 13))”. Besides, in series [3], the “Relative Activity of GLA Variants After Challenge at pH 9.7” value (shortened to “Relative Activity … at pH 9.7”) is “++ (++ = >5 to 10 relative activity over Rd3BB (SEQ ID NO: 13))”.

B2: 567 (protein)
chain: LDNGLARTPTMGWLHWERFMCNLDCQEEPDSCISEKLFMEMAERMVSEGWKDAGYEYLCIDDCWMAPQRDSEGRLQADPQRFPHGIRQLANHVHSKGLKLGIYADVGNKTCAGFPGSFGYYDIDAQTFADWGVDLLKFDGCYCDSLENLADGYKHMSLALNRTGRSIVYSCEWPLYMWPFQKPNYTEIRQYCNHWRNFADIDDSWASIKSILDWTSRNQERIVDVAGPGGWNDPDMLVIGNFGLSWDQQVTQMALWAIMAAPLFMSNDLRHISPQAKALLQDKDVIAINQDPLGKQGYQLRKGDNFEVWERPLSGDAWAVAIINRQEIGGPRSYTIPVASLGKGVACQPACFITQLLPVKRQLGFYNWTSRLKSHINPTGTVLLQLENTMQMSLKDLL
modifications: Synthetic Polypeptide sequence of Variant No. 567 of mature Human GLA
With B2, in series [1], the “Relative Activity of GLA Variants After No Challenge (NC)” value was “+ (+ = 1.5 to 5 relative activity over Rd3BB (SEQ ID NO: 13))”. For the same molecule, the “Relative Activity … at pH 3.7” value in series [2] is recorded as “+ (+ = 1.5 to 5 relative activity over Rd3BB (SEQ ID NO: 13))”. In series [3], the “Relative Activity … at pH 9.7” value is “++ (++ = >5 to 10 relative activity over Rd3BB (SEQ ID NO: 13))”.

B3: 573 (protein)
chain: LDNGLARTPTMGWLHWERFMCNLDCQEEPDSCISEKLFMEMAERMVSEGWKDAGYEYLCIDDCWMAPQRDSEGRLQADPQRFPHGIRQLANHVHSKGLKLGIYADVGNKTCAGFPGSFGYYDIDAQTFADWGVDLLKFDGCYCDSLENLADGYKHMSLALNRTGRSIVYSCEWPLYMWPFQKPNYTEIRQYCNHWRNFADIDDSWASIKSILDWTSRNQERIVDVAGPGGWNDPDMLVIGNFGLSWDQQVTQMALWAIMAAPLFMSNDLRHISPQAKALLQDKDVIAINQDPLGKQGYQLRKGDNFEVWERPLAGDAWAVAIINRQEIGGPRSYTIPVASLGKGVACNPACFITQLLPVKRQLGFYNWTSRLKSHINPTGTVLLQLENTMQMSLKDLL
modifications: Synthetic Polypeptide sequence of Variant No. 573 of mature Human GLA
As to B3, the “Relative Activity of GLA Variants After No Challenge (NC)” value in series [1] is “+ (+ = 1.5 to 5 relative activity over Rd3BB (SEQ ID NO: 13))”. Also, the “Relative Activity … at pH 3.7” value in series [2] is “+ (+ = 1.5 to 5 relative activity over Rd3BB (SEQ ID NO: 13))”. The “Relative Activity … at pH 9.7” value in series [3] is reported as “++ (++ = >5 to 10 relative activity over Rd3BB (SEQ ID NO: 13))”.

B4: 571 (protein)
chain: LDNGLARTPTMGWLHWERFMCNLDCQEEPDSCISEKLFMEMAERMVSEGWKDAGYEYLCIDDCWMAPQRDSEGRLQADPQRFPHGIRQLANHVHSKGLKLGIYADVGNKTCAGFPGSFGYYDIDAQTFADWGVDLLKFDGCYCDSLENLADGYKHMSLALNRTGRSIVYSCEWPLYMWPFQKPNYTEIRQYCNHWRNFADIDDSWASIKSILDWTSRNQERIVDVAGPGGWNDPDMLVIGNFGLSWDQQVTQMALWAIMAAPLFMSNDLRHISPQAKALLQDKDVIAINQDPLGKQGYQLRKGDKFEVWERPLSGDAWAVAIINRQEIGGPRSYTIPVASLGKGVACNPACFITQLLPVKRQLGFYNWTSRLKSHINPTGTVLLQLENTMQMSLKDLL
modifications: Synthetic Polypeptide sequence of Variant No. 571 of mature Human GLA
As to B4, the “Relative Activity of GLA Variants After No Challenge (NC)” value in series [1] is “+ (+ = 1.5 to 5 relative activity over Rd3BB (SEQ ID NO: 13))”. Moreover, the “Relative Activity … at pH 3.7” value in series [2] is listed as “+ (+ = 1.5 to 5 relative activity over Rd3BB (SEQ ID NO: 13))”. Moreover, the “Relative Activity … at pH 9.7” value in series [3] is recorded as “++ (++ = >5 to 10 relative activity over Rd3BB (SEQ ID NO: 13))”.

B5: 572 (protein)
chain: LDNGLARTPTMGWLHWERFMCNLDCQEEPDSCISEKLFMEMAERMVSEGWKDAGYEYLCIDDCWMAPQRDSEGRLQADPQRFPHGIRQLANHVHSKGLKLGIYADVGNKTCAGFPGSFGYYDIDAQTFADWGVDLLKFDGCYCDSLENLADGYKHMSLALNRTGRSIVYSCEWPLYMWPFQKPNYTEIRQYCNHWRNFADIDDSWASIKSILDWTSRNQERIVDVAGPGGWNDPDMLVIGNFGLSWDQQVTQMALWAIMAAPLFMSNDLRHISPQAKALLQDKDVIAINQDPLGKQGYQLRKGDLFEVWERPLSGDAWAVAIINRQEIGGPRSYTIPVASLGKGVACNPACFITQLLPVKRQLGFYNWTSRLKSHINPTGTVLLQLENTMQMSLKDLL
modifications: Synthetic Polypeptide sequence of Variant No. 572 of mature Human GLA
B5: the “Relative Activity of GLA Variants After No Challenge (NC)” value in series [1] was “+ (+ = 1.5 to 5 relative activity over Rd3BB (SEQ ID NO: 13))”. In addition, the “Relative Activity … at pH 3.7” value in series [2] was “+++ (+++ = >10 relative activity over Rd3BB (SEQ ID NO: 13))”. Further, in series [3], the “Relative Activity … at pH 9.7” value was “++ (++ = >5 to 10 relative activity over Rd3BB (SEQ ID NO: 13))”.

B6: 570 (protein)
chain: LDNGLARTPTMGWLHWERFMCNLDCQEEPDSCISEKLFMEMAERMVSEGWKDAGYEYLCIDDCWMAPQRDSEGRLQADPQRFPHGIRQLANHVHSKGLKLGIYADVGNKTCAGFPGSFGYYDIDAQTFADWGVDLLKFDGCYCDSLENLADGYKHMSLALNRTGRSIVYSCEWPLYMWPFQKPNYTEIRQYCNHWRNFADIDDSWASIKSILDWTSRNQERIVDVAGPGGWNDPDMLVIGNFGLSWDQQVTQMALWAIMAAPLFMSNDLRHISPQAKALLQDKDVIAINQDPLGKQGYQLRKGDNFEVWERPLSGDAWAVAIINRQEIGGPRSYTIPVASLGKGVACNPACFISQLLPVKRQLGFYNWTSRLKSHINPTGTVLLQLENTMQMSLKDLL
modifications: Synthetic Polypeptide sequence of Variant No. 570 of mature Human GLA
As for B6, in series [1], the “Relative Activity of GLA Variants After No Challenge (NC)” value is recorded as “+ (+ = 1.5 to 5 relative activity over Rd3BB (SEQ ID NO: 13))”. Also, in series [2], the “Relative Activity … at pH 3.7” value is reported as “+ (+ = 1.5 to 5 relative activity over Rd3BB (SEQ ID NO: 13))”. Besides, the “Relative Activity … at pH 9.7” value in series [3] is listed as “++ (++ = >5 to 10 relative activity over Rd3BB (SEQ ID NO: 13))”.

B7: 568 (protein)
chain: LDNGLARTPTMGWLHWERFMCNLDCQEEPDSCISEKLFMEMAERMVSEGWKDAGYEYLCIDDCWMAPQRDSEGRLQADPQRFPHGIRQLANHVHSKGLKLGIYADVGNKTCAGFPGSFGYYDIDAQTFADWGVDLLKFDGCYCDSLENLADGYKHMSLALNRTGRSIVYSCEWPLYMWPFQKPNYTEIRQYCNHWRNFADIDDSWASIKSILDWTSRNQERIVDVAGPGGWNDPDMLVIGNFGLSWDQQVTQMALWAIMAAPLFMSNDLRHISPQAKALLQDKDVIAINQDPLGKQGYQLRKGDNFEVWERPLSGDAWAVAIINRQEIGGPRSYTIPVASLGKGVACRPACFITQLLPVKRQLGFYNWTSRLKSHINPTGTVLLQLENTMQMSLKDLL
modifications: Synthetic Polypeptide sequence of Variant No. 568 of mature Human GLA
B7: in series [1], the “Relative Activity of GLA Variants After No Challenge (NC)” value is “+ (+ = 1.5 to 5 relative activity over Rd3BB (SEQ ID NO: 13))”. Further, in series [2], the “Relative Activity … at pH 3.7” value was “+ (+ = 1.5 to 5 relative activity over Rd3BB (SEQ ID NO: 13))”. For the same molecule, the “Relative Activity … at pH 9.7” value in series [3] was “++ (++ = >5 to 10 relative activity over Rd3BB (SEQ ID NO: 13))”.

B8: 569 (protein)
chain: LDNGLARTPTMGWLHWERFMCNLDCQEEPDSCISEKLFMEMAERMVSEGWKDAGYEYLCIDDCWMAPQRDSEGRLQADPQRFPHGIRQLANHVHSKGLKLGIYADVGNKTCAGFPGSFGYYDIDAQTFADWGVDLLKFDGCYCDSLENLADGYKHMSLALNRTGRSIVYSCEWPLYMWPFQKPNYTEIRQYCNHWRNFADIDDSWASIKSILDWTSRNQERIVDVAGPGGWNDPDMLVIGNFGLSWDQQVTQMALWAIMAAPLFMSNDLRHISPQAKALLQDKDVIAINQDPLGKQGYQLRKGDNFEVWERPLSGDAWAVAIINRQEIGGPRSYTIPVASLGKGVACWPACFITQLLPVKRQLGFYNWTSRLKSHINPTGTVLLQLENTMQMSLKDLL
modifications: Synthetic Polypeptide sequence of Variant No. 569 of mature Human GLA
B8: the “Relative Activity of GLA Variants After No Challenge (NC)” value in series [1] was “+ (+ = 1.5 to 5 relative activity over Rd3BB (SEQ ID NO: 13))”. Further, in series [2], the “Relative Activity … at pH 3.7” value is listed as “+ (+ = 1.5 to 5 relative activity over Rd3BB (SEQ ID NO: 13))”. Further, in series [3], the “Relative Activity … at pH 9.7” value was “++ (++ = >5 to 10 relative activity over Rd3BB (SEQ ID NO: 13))”.
